{"source": "patent US20250019439A1", "about": "(Adimab, published 2025)", "key": {"[1]": {"biological_target": "T1, CTL-62228", "T1 construct": "also called glofitamab", "experiment": "SPR Carterra, yeast anti-ID", "method": "(§1) Kinetic analysis was conducted at 25° C. in an HBSTE running buffer system (Carterra Cat #3630) using a Carterra LSA (Carterra USA, Salt Lake City, UT). The sample compartment was maintained at 20° C. for the duration of each experiment.\n(§2) For antibody capture experiments, a goat anti-human Fc antibody (Jackson ImmunoResearch) was covalently coupled to an HC30M sensor chip surface via standard amine coupling (1:1 EDC:NHS) and then blocked with ethanolamine (1.0 M, pH 8.5). Covalent coupling steps were performed in 25 mM MES buffer (Carterra, Cat #3625) plus 0.05% Tween20. The anti-CD3 antibodies (100 nM in running buffer) were flowed over discrete regions of interest on the chip surface for 5 minutes. […] Dissociation of the anti-idiotype antibodies was monitored for 300s. Several blank buffer samples were injected over the entire chip surface at the start of each non-regenerative kinetic cycle. The preceding blank buffer injection was used for blank surface subtraction. At the end of each non-regenerative kinetic cycle, all surfaces were regenerated via two 30s injections of 10 mM glycine, pH 1.7.\n(§3) For data processing and fitting, sensorgrams were double reference subtracted with a baseline drift correction of 4 RU. Sensorgrams were y-aligned and baseline corrected, filtered and cropped to include only the association and dissociation steps. Data was fitted to a 1:1 binding model using Carterra Kinetics Data Analysis software version 1.7.1.3055."}, "[2]": {"biological_target": "T2, CTL-62240", "T2 construct": "also called ONO-4685", "experiment": "SPR Carterra, yeast anti-ID", "method": "as §1, §2, §3"}, "[3]": {"biological_target": "T3, CTL-62227", "T3 construct": "also called odronextamab", "experiment": "SPR Carterra, yeast anti-ID", "method": "as §1, §2, §3"}, "[4]": {"biological_target": "T4, ADI-48650", "T4 construct": "pH-dependent anti-CD3 antibody made in CHO cells", "experiment": "SPR Carterra avidity, yeast anti-ID", "method": "as §1, §2, §3"}, "[5]": {"biological_target": "T5, ADI-67450", "T5 construct": "anti-CD3 antibody made in CHO cells, captured by anti-human Fc", "T5 sequence (VH, as listed by the source limits assumed, chain 1 of 2)": "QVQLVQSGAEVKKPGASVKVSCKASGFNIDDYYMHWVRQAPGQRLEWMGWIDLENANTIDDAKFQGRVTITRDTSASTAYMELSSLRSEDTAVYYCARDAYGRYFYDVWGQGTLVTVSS", "T5 sequence (VL, as listed by the source limits assumed, chain 2 of 2)": "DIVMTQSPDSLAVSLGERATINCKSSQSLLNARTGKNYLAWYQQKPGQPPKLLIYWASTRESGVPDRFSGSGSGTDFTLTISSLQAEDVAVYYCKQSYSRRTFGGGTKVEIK", "experiment": "SPR Carterra avidity, yeast anti-ID", "method": "as §1, §2, §3"}, "[6]": {"biological_target": "T6, ADI-70330", "T6 construct": "anti-CD3 antibody made in CHO cells, captured by anti-human Fc", "experiment": "SPR Carterra avidity, yeast anti-ID", "method": "as §1, §2, §3"}, "[7]": {"biological_target": "T7, ADI-74967", "T7 construct": "pH-dependent anti-CD3 antibody made in CHO cells", "experiment": "SPR Carterra avidity, yeast anti-ID", "method": "as §1, §2, §3"}, "[8]": {"biological_target": "T8, CTL-62223", "T8 construct": "also called mosunetuzumab", "T8 sequence (VH, as listed by the source, chain 1 of 2)": "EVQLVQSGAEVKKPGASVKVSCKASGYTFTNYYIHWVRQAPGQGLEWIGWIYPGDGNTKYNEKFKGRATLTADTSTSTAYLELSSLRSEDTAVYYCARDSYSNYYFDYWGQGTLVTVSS", "T8 sequence (VL, as listed by the source, chain 2 of 2)": "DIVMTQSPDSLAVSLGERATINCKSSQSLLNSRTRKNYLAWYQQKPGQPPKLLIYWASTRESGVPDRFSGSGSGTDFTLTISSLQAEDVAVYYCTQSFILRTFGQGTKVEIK", "experiment": "SPR Carterra avidity, yeast anti-ID", "method": "as §1, §2, §3"}, "[9]": {"biological_target": "T9, ADI-48592", "T9 construct": "pH-dependent anti-CD3 antibody made in CHO cells", "T9 sequence (VH, as listed by the source, chain 1 of 2)": "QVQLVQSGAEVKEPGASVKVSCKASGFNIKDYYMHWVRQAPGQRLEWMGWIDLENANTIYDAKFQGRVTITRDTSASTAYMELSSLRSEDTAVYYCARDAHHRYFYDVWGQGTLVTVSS", "T9 sequence (VL, as listed by the source, chain 2 of 2)": "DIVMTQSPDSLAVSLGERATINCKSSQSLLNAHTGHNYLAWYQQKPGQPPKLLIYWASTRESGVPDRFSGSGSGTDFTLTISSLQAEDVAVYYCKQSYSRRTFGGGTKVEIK", "experiment": "SPR Carterra avidity, yeast anti-ID", "method": "as §1, §2, §3"}, "[10]": {"biological_target": "T10, ADI-26913 IgG", "T10 construct": "anti-CD3 IgG", "T10 sequence (VH, as listed by the source limits assumed, chain 1 of 2)": "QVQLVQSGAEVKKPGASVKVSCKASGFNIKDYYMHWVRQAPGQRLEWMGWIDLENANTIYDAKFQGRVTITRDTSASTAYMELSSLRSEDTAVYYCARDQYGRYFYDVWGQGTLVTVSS", "experiment": "SPR Carterra avidity, yeast anti-ID", "method": "as §1, §2, §3"}, "[11]": {"biological_target": "T11, ADI-76358", "T11 construct": "anti-CD3 antibody made in CHO cells, captured by anti-human Fc", "experiment": "SPR Carterra avidity, yeast anti-ID", "method": "as §1, §2, §3"}, "[12]": {"biological_target": "T12, ADI-50024", "T12 construct": "anti-CD3 antibody made in CHO cells, captured by anti-human Fc", "T12 sequence (VH, as listed by the source limits assumed, chain 1 of 2)": "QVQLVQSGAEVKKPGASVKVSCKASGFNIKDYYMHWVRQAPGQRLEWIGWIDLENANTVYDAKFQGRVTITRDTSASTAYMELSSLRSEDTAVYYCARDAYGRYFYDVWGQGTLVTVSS", "T12 sequence (VL, as listed by the source limits assumed, chain 2 of 2)": "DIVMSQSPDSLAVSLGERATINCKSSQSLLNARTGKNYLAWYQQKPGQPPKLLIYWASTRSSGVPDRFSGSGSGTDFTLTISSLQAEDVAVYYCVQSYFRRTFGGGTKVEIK", "experiment": "SPR Carterra avidity, yeast anti-ID", "method": "as §1, §2, §3"}, "[13]": {"biological_target": "T13, ADI-74965", "T13 construct": "pH-dependent anti-CD3 antibody made in CHO cells", "T13 sequence (VH, as listed by the source, chain 1 of 2)": "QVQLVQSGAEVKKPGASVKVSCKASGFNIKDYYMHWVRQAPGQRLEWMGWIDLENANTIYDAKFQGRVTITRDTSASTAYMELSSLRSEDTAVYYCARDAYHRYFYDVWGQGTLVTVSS", "T13 sequence (VL, as listed by the source, chain 2 of 2)": "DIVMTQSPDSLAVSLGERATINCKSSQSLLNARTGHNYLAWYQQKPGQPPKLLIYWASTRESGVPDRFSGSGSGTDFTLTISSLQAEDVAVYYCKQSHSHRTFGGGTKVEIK", "experiment": "SPR Carterra avidity, yeast anti-ID", "method": "as §1, §2, §3"}, "[14]": {"biological_target": "T14, ADI-26909", "T14 construct": "anti-CD3 antibody made in CHO cells, captured by anti-human Fc", "experiment": "SPR Carterra avidity, yeast anti-ID", "method": "as §1, §2, §3"}, "[15]": {"biological_target": "T15, ADI-74966", "T15 construct": "pH-dependent anti-CD3 antibody made in CHO cells", "experiment": "SPR Carterra avidity, yeast anti-ID", "method": "as §1, §2, §3"}, "[16]": {"biological_target": "T16, ADI-76359", "T16 construct": "anti-CD3 antibody made in CHO cells, captured by anti-human Fc", "experiment": "SPR Carterra avidity, yeast anti-ID", "method": "as §1, §2, §3"}, "[17]": {"biological_target": "T17, ADI-76362", "T17 construct": "anti-CD3 antibody made in CHO cells, captured by anti-human Fc", "T17 sequence (VH, as listed by the source, chain 1 of 2)": "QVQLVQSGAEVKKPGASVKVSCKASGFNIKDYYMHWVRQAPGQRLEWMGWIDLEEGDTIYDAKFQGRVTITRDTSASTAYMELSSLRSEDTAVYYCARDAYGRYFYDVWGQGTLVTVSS", "T17 sequence (VL, as listed by the source, chain 2 of 2)": "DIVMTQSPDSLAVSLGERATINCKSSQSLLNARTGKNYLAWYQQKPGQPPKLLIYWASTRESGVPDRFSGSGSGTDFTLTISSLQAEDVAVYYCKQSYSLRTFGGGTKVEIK", "experiment": "SPR Carterra avidity, yeast anti-ID", "method": "as §1, §2, §3"}, "[18]": {"biological_target": "T18, ADI-26906 IgG", "T18 construct": "anti-CD3 IgG", "T18 sequence (VH, as listed by the source limits assumed, chain 1 of 2)": "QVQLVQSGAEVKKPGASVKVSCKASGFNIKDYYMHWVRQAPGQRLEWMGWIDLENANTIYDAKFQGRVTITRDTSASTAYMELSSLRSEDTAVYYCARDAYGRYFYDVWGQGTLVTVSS", "experiment": "SPR Carterra avidity, yeast anti-ID", "method": "as §1, §2, §3"}, "[19]": {"biological_target": "T19, ADI-48576", "T19 construct": "pH-dependent anti-CD3 antibody made in CHO cells", "T19 sequence (VH, as listed by the source, chain 1 of 2)": "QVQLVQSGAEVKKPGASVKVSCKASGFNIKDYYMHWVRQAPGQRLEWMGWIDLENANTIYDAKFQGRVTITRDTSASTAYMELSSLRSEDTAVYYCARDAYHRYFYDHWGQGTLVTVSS", "T19 sequence (VL, as listed by the source, chain 2 of 2)": "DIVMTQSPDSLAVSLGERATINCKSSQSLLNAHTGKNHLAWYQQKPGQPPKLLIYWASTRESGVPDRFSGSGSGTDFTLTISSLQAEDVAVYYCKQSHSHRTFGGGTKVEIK", "experiment": "SPR Carterra avidity, yeast anti-ID", "method": "as §1, §2, §3"}, "[20]": {"biological_target": "T20, ADI-70326", "T20 construct": "anti-CD3 antibody made in CHO cells, captured by anti-human Fc", "T20 sequence (VH, as listed by the source limits assumed, chain 1 of 2)": "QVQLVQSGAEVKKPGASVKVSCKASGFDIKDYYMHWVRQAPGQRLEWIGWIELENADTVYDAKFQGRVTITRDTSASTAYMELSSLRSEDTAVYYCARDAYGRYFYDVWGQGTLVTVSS", "experiment": "SPR Carterra avidity, yeast anti-ID", "method": "as §1, §2, §3"}, "[21]": {"biological_target": "T21, ADI-26916 IgG", "T21 construct": "anti-CD3 IgG", "T21 sequence (VH, as listed by the source, chain 1 of 2)": "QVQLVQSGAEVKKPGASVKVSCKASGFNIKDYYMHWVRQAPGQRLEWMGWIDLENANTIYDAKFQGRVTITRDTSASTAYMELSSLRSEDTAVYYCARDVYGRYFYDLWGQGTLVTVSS", "experiment": "SPR Carterra avidity, yeast anti-ID", "method": "as §1, §2, §3"}, "[22]": {"biological_target": "T22, ADI-76357", "T22 construct": "anti-CD3 antibody made in CHO cells, captured by anti-human Fc", "T22 sequence (VH, as listed by the source, chain 1 of 2)": "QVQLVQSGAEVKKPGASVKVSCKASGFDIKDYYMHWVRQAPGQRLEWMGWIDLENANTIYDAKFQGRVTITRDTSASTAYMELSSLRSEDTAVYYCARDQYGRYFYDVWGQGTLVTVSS", "experiment": "SPR Carterra avidity, yeast anti-ID", "method": "as §1, §2, §3"}, "[23]": {"biological_target": "T23, ADI-67445", "T23 construct": "anti-CD3 antibody made in CHO cells, captured by anti-human Fc", "experiment": "SPR Carterra avidity, yeast anti-ID", "method": "as §1, §2, §3"}, "[24]": {"biological_target": "T24, ADI-26943", "T24 construct": "anti-CD3 antibody made in CHO cells, captured by anti-human Fc", "T24 sequence (VH, as listed by the source, chain 1 of 2)": "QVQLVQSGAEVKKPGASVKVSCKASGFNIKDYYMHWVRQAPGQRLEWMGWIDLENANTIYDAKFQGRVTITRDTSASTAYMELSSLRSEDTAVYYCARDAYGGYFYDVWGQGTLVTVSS", "T24 sequence (VL, as listed by the source, chain 2 of 2)": "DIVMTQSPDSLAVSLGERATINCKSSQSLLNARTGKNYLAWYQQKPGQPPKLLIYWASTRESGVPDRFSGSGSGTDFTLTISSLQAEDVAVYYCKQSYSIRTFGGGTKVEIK", "experiment": "SPR Carterra avidity, yeast anti-ID", "method": "as §1, §2, §3"}, "[25]": {"biological_target": "T25, ADI-74968", "T25 construct": "pH-dependent anti-CD3 antibody made in CHO cells", "experiment": "SPR Carterra avidity, yeast anti-ID", "method": "as §1, §2, §3"}, "[26]": {"biological_target": "T26, ADI-26919", "T26 construct": "anti-CD3 antibody made in CHO cells, captured by anti-human Fc", "experiment": "SPR Carterra avidity, yeast anti-ID", "method": "as §1, §2, §3"}, "[27]": {"biological_target": "T27, ADI-76360", "T27 construct": "anti-CD3 antibody made in CHO cells, captured by anti-human Fc", "T27 sequence (VH, as listed by the source, chain 1 of 2)": "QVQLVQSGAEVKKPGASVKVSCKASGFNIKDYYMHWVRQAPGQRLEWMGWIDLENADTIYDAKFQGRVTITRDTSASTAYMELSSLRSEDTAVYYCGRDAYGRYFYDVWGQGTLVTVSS", "experiment": "SPR Carterra avidity, yeast anti-ID", "method": "as §1, §2, §3"}, "[28]": {"biological_target": "T28, ADI-48587", "T28 construct": "pH-dependent anti-CD3 antibody made in CHO cells", "experiment": "SPR Carterra avidity, yeast anti-ID", "method": "as §1, §2, §3"}, "[29]": {"biological_target": "T29, ADI-76361", "T29 construct": "anti-CD3 antibody made in CHO cells, captured by anti-human Fc", "experiment": "SPR Carterra avidity, yeast anti-ID", "method": "as §1, §2, §3"}, "[30]": {"biological_target": "T30, ADI-26921 IgG", "T30 construct": "anti-CD3 IgG", "T30 sequence (VH, as listed by the source limits assumed, chain 1 of 2)": "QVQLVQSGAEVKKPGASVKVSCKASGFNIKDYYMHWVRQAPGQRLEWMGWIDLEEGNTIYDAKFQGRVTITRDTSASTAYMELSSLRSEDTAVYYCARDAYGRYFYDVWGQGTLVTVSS", "experiment": "SPR Carterra avidity, yeast anti-ID", "method": "as §1, §2, §3"}, "[31]": {"biological_target": "T31, ADI-70327", "T31 construct": "anti-CD3 antibody made in CHO cells, captured by anti-human Fc", "experiment": "SPR Carterra avidity, yeast anti-ID", "method": "as §1, §2, §3"}, "[32]": {"biological_target": "T32, ADI-26924", "T32 construct": "anti-CD3 antibody made in CHO cells, captured by anti-human Fc", "T32 sequence (VH, as listed by the source, chain 1 of 2)": "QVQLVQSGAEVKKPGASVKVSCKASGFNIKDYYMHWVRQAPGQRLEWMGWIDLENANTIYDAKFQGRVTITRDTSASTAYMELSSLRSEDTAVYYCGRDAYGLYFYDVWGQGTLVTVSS", "experiment": "SPR Carterra avidity, yeast anti-ID, *koff limit", "method": "as §1, §2, §3"}, "[33]": {"biological_target": "T33, ADI-26920 IgG", "T33 construct": "anti-CD3 IgG", "T33 sequence (VH, as listed by the source limits assumed, chain 1 of 2)": "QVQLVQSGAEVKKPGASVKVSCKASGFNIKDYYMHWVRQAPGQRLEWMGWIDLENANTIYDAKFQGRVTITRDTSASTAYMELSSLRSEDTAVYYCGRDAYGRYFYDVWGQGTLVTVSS", "experiment": "SPR Carterra avidity, yeast anti-ID, *koff limit", "method": "as §1, §2, §3"}, "[34]": {"biological_target": "T34, ADI-67447", "T34 construct": "anti-CD3 antibody made in CHO cells, captured by anti-human Fc", "experiment": "SPR Carterra avidity, yeast anti-ID, *koff limit", "method": "as §1, §2, §3"}}, "data": [{"binder": "ADI-34146 (antibody, V domains shown, anti-ID IgG) VH: EVQLLESGGGLVQPGGSLRLSCAASGFTFSSYAMSWVRQAPGKGLEWVSTISGSGGSTYYADSVKGRFTISRDNSKNTLYLQMNSLRAEDTAVYYCARLGGRRGSGSSYYYYYGMDVWGQGTTVTVSS VL: not shown", "values": [{"measurement": "binding result", "setting": "[1]", "result": "no binding (tested: up to 200 nM)"}, {"measurement": "binding result", "setting": "[2]", "result": "no binding (tested: up to 200 nM)"}, {"measurement": "binding result", "setting": "[3]", "result": "no binding (tested: up to 200 nM)"}, {"measurement": "Kd", "setting": "[4]", "result": 3.3, "unit": "nM"}, {"measurement": "Kd", "setting": "[5]", "result": 1.8, "unit": "nM"}, {"measurement": "Kd", "setting": "[6]", "result": 1.2, "unit": "nM"}, {"measurement": "Kd", "setting": "[7]", "result": 0.5, "unit": "nM"}, {"measurement": "Kd", "setting": "[8]", "result": 4.5, "unit": "nM"}, {"measurement": "Kd", "setting": "[9]", "result": 16, "unit": "nM"}, {"measurement": "Kd", "setting": "[10]", "result": 0.55, "unit": "nM"}, {"measurement": "Kd", "setting": "[11]", "result": 2.9, "unit": "nM"}, {"measurement": "Kd", "setting": "[12]", "result": 1.1, "unit": "nM"}, {"measurement": "Kd", "setting": "[13]", "result": 0.75, "unit": "nM"}, {"measurement": "Kd", "setting": "[14]", "result": 0.64, "unit": "nM"}, {"measurement": "Kd", "setting": "[15]", "result": 0.86, "unit": "nM"}, {"measurement": "Kd", "setting": "[16]", "result": 0.39, "unit": "nM"}, {"measurement": "Kd", "setting": "[17]", "result": 1.4, "unit": "nM"}, {"measurement": "Kd", "setting": "[18]", "result": 0.63, "unit": "nM"}, {"measurement": "Kd", "setting": "[19]", "result": 12, "unit": "nM"}, {"measurement": "Kd", "setting": "[20]", "result": 3.9, "unit": "nM"}, {"measurement": "Kd", "setting": "[21]", "result": 1.8, "unit": "nM"}, {"measurement": "Kd", "setting": "[22]", "result": 0.54, "unit": "nM"}, {"measurement": "Kd", "setting": "[23]", "result": 0.93, "unit": "nM"}, {"measurement": "Kd", "setting": "[24]", "result": 0.87, "unit": "nM"}, {"measurement": "Kd", "setting": "[25]", "result": 0.41, "unit": "nM"}, {"measurement": "Kd", "setting": "[26]", "result": 0.35, "unit": "nM"}, {"measurement": "Kd", "setting": "[27]", "result": 0.57, "unit": "nM"}, {"measurement": "Kd", "setting": "[28]", "result": 0.79, "unit": "nM"}, {"measurement": "Kd", "setting": "[29]", "result": 0.24, "unit": "nM"}, {"measurement": "Kd", "setting": "[30]", "result": 0.24, "unit": "nM"}, {"measurement": "Kd", "setting": "[31]", "result": 1.7, "unit": "nM"}, {"measurement": "Kd", "setting": "[32]", "result": 0.25, "unit": "nM"}, {"measurement": "Kd", "setting": "[33]", "result": 0.29, "unit": "nM"}, {"measurement": "Kd", "setting": "[34]", "result": 0.35, "unit": "nM"}]}]}
